In patent publication US20100233095A1:
pyrene = pyrene (fluorescent label)

Biological target: fibrillar amyloid target protein (UniProt P05067)
Assay: pyrene excimer:monomer fluorescence ratio of di-pyrene probe in the presence of fibrillar amyloid target protein

maximal signal gain relative to the reference peptide (SEQ ID NO:1): 2.6 fold
Binder: pyrene-KLVFFAEDVGSNKHAIIELMK(pyrene)-NH2 [Peptide 22 (SEQ ID NO:2)]
